Data taken from patent US20240058465A1 (SUTRO BIOPHARMA, published 2024).
Where a chain is given by its changes, count along the chain named.

B1: SRP2193-D02 (antibody, IgG1, V domains shown)
VH: EVQLVESGGGLVQPGGSLRLSCAASGFNIKDYYIHWVRQAPGKGLEWVGAIDPESGSTVYADSVKGRFTISADTSKNTAYLQMNSLRAEDTAVYYCARSRWFRVLWSYVFDYWGQGTLVTVSS
VL: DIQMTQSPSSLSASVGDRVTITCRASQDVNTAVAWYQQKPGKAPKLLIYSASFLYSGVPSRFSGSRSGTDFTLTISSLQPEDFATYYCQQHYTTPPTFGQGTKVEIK
notes: His/FLAG-tagged IgG1, cell-free
B2: SRP2193-D05 (antibody, IgG1, V domains shown)
VH: B1 VH with K30N, Y32H, E54N
VL: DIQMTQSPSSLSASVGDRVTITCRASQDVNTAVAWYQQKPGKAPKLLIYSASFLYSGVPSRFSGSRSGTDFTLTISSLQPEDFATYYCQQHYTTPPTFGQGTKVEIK
notes: His/FLAG-tagged IgG1, cell-free; also called Antibody 78
B3: SRP2193-B11 (antibody, IgG1, V domains shown)
VH: B1 VH with K30T, D31G, Y32S, E54K, S57F, V59S, V64A, Y108F
VL: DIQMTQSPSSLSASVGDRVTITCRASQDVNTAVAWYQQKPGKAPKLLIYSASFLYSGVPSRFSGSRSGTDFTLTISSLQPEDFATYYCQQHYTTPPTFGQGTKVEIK
notes: His/FLAG-tagged IgG1, cell-free; also called Antibody 100
B4: SRP2193-B01 (antibody, IgG1, V domains shown)
VH: B1 VH with K30G, D31G, E54R, S57Y, Y108F, F110L
VL: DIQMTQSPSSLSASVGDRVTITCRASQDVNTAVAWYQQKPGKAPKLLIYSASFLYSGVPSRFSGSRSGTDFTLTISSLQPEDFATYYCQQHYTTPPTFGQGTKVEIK
notes: as for B1
B5: SRP2193-B06 (antibody, IgG1, V domains shown)
VH: B1 VH with K30D, D31G, G49A, E54H, S55P, S107T
VL: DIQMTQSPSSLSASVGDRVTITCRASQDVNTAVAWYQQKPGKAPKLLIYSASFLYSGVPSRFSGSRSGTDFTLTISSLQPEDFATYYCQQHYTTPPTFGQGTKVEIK
notes: as for B1
B6: SRP2193-B09 (antibody, IgG1, V domains shown)
VH: B1 VH with K30N, D31N, Y32S, A50I, E54N, S55N, V59A, F102Y, F110L
VL: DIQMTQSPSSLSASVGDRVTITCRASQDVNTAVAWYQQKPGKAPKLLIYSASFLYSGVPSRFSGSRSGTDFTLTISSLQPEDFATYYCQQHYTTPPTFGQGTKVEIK
notes: His/FLAG-tagged IgG1, cell-free; also called Antibody 75
B7: Conjugate 28 (A05 x B04-F404-LP8 biparatopic) (bispecific antibody, human IgG1, kappa)
heavy 1: MEVQLVESGGGLVQPGGSLRLSCAASGFNIKEYHIHWVRQAPGKGLEWVGYISPNSGSTYYADSVKGRFTISADTSKNTAYLQMNSLRAEDTAVYYCARDHRRYVRPFDYWGQGTLVTVSSASTKGPSVFPLAPSSKSTSGGTAALGCLVKDYFPEPVTVSWNSGALTSGVHTFPAVLQSSGLYSLSSVVTVPSSSLGTQTYICNVNHKPSNTKVDKKVEPKSCDKTHTCPPCPAPELLGGPSVFLFPPKPKDTLMISRTPEVTCVVVDVSHEDPEVKFNWYVDGVEVHNAKTKPREEQYNSTYRVVSVLTVLHQDWLNGKEYKCKVSNKALPAPIEKTISKAKGQPREPQVYTLPPSREEMTKNQVSLWCLVKGFYPSDIAVEWESNGQPENNYKTTPPVLDSDGSFLYSKLTVDKSRWQQGNVFSCSVMHEALHNHYTQKSLSLSPGK
heavy 2: MEVQLVESGGGLVQPGGSLRLSCAASGFNIAGYAIHWVRQAPGKGLEWVGLITPTPGTSNYADSVKGRFTISVDTSKNTAYLQMNSLRAEDTAAYYCARDYRGVYLYSFYYDYWGQGTLVTVSSASTKGPSVFPLAPSSKSTSGGTAALGCLVKDYFPEPVTVSWNSGALTSGVHTFPAVLQSSGLYSLSSVVTVPSSSLGTQTYICNVNHKPSNTKVDKKVEPKSCDKTHTCPPCPAPELLGGPSVFLFPPKPKDTLMISRTPEVTCVVVDVSHEDPEVKFNWYVDGVEVHNAKTKPREEQYNSTYRVVSVLTVLHQDWLNGKEYKCKVSNKALPAPIEKTISKAKGQPREPQVYTLPPSREEMTKNQVSLSCAVKGFYPSDIAVEWESNGQPENNYKTTPPVLDSDGSFLVSKLTVDKSRWQQGNVFSCSVMHEALHNHYTQKSLSLSPGK
light: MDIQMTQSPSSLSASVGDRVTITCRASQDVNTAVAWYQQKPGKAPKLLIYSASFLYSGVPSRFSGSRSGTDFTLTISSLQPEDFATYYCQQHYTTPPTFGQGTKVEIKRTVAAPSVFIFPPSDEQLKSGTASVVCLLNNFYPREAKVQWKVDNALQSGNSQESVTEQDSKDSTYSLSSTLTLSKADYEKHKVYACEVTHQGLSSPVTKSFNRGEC
modifications: pAMF at F404 (EU), linked to LP8
B8: Conjugate 29 (A05 x C06-F404-LP8 biparatopic) (bispecific antibody, human IgG1, kappa)
heavy 1: B7 heavy 1
heavy 2: MEVQLVESGGGLVQPGGSLRLSCAASGFNITSYGIHWVRQAPGKGLEWVGWIAPNSGNTYYADSVKGRFTISADTSKNTAYLQMNSLRAEDTAVYYCARDIVSTYSYYYLMDYWGQGTLVTVSSASTKGPSVFPLAPSSKSTSGGTAALGCLVKDYFPEPVTVSWNSGALTSGVHTFPAVLQSSGLYSLSSVVTVPSSSLGTQTYICNVNHKPSNTKVDKKVEPKSCDKTHTCPPCPAPELLGGPSVFLFPPKPKDTLMISRTPEVTCVVVDVSHEDPEVKFNWYVDGVEVHNAKTKPREEQYNSTYRVVSVLTVLHQDWLNGKEYKCKVSNKALPAPIEKTISKAKGQPREPQVYTLPPSREEMTKNQVSLSCAVKGFYPSDIAVEWESNGQPENNYKTTPPVLDSDGSFLVSKLTVDKSRWQQGNVFSCSVMHEALHNHYTQKSLSLSPGK
light: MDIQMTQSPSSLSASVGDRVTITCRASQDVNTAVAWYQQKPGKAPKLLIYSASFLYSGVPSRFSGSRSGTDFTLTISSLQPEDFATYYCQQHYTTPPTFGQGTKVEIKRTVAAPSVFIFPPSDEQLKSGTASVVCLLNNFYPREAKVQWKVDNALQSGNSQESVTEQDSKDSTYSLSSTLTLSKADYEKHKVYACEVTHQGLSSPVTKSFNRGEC
modifications: pAMF at F404 (EU), linked to LP8
B9: Conjugate 19 (D04-F404-LP30) (antibody, human IgG1, kappa)
heavy: MEVQLVESGGGLVQPGGSLRLSCAASGFNISDYDIHWVRQAPGKGLEWVGGIDPADGSTDYADSVKGRFTISADTSKNTAYLQMNSLRAEDTAVYYCARDYGVYDYWGQGTLVTVSSASTKGPSVFPLAPSSKSTSGGTAALGCLVKDYFPEPVTVSWNSGALTSGVHTFPAVLQSSGLYSLSSVVTVPSSSLGTQTYICNVNHKPSNTKVDKKVEPKSCDKTHTCPPCPAPELLGGPSVFLFPPKPKDTLMISRTPEVTCVVVDVSHEDPEVKFNWYVDGVEVHNAKTKPREEQYNSTYRVVSVLTVLHQDWLNGKEYKCKVSNKALPAPIEKTISKAKGQPREPQVYTLPPSREEMTKNQVSLTCLVKGFYPSDIAVEWESNGQPENNYKTTPPVLDSDGSFLYSKLTVDKSRWQQGNVFSCSVMHEALHNHYTQKSLSLSPGK
light: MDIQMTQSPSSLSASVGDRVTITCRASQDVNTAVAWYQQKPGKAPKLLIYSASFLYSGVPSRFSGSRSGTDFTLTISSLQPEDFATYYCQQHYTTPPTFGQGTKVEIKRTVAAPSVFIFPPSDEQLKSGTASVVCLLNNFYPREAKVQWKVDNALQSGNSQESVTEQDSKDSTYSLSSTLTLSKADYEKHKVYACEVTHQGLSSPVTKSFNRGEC
modifications: pAMF at F404 (EU), linked to LP30
B10: Conjugate 17 (D04-F404-LP14) (antibody, human IgG1, kappa)
heavy: B9 heavy
light: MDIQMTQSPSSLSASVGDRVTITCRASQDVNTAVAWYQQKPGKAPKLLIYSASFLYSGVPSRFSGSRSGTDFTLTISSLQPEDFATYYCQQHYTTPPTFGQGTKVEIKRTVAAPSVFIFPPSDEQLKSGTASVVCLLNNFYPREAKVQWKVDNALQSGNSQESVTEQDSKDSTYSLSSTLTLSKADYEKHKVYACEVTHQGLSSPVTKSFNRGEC
modifications: pAMF at F404 (EU), linked to LP14
B11: Conjugate 27 (D04 x B04-F404-LP8 biparatopic) (bispecific antibody, human IgG1, kappa)
heavy 1: B9 heavy with T366W
heavy 2: B7 heavy 2
light: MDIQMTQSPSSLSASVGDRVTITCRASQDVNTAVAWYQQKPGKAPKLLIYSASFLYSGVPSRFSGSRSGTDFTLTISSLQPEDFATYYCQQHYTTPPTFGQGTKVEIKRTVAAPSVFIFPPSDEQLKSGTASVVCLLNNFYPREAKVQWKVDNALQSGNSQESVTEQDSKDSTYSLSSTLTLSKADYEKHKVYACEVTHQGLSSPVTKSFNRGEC
modifications: pAMF at F404 (EU), linked to LP8
B12: Conjugate 26 (D04 x A05-F404-LP8 biparatopic) (bispecific antibody, human IgG1, kappa)
heavy 1: B9 heavy with T366W
heavy 2: B7 heavy 1 with W370S, L372A, Y410V
light: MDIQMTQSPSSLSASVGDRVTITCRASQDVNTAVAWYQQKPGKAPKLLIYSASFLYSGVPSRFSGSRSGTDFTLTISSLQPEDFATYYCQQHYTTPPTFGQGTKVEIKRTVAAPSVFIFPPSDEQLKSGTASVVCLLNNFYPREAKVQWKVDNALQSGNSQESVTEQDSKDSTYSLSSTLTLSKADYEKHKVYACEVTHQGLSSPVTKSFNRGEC
modifications: pAMF at F404 (EU), linked to LP8
B13: Conjugate 25 (D04 x B09-F404-LP8 biparatopic) (bispecific antibody, human IgG1, kappa)
heavy 1: B9 heavy with T366W
heavy 2: MEVQLVESGGGLVQPGGSLRLSCAASGFNINNSYIHWVRQAPGKGLEWVGIIDPNNGSTAYADSVKGRFTISADTSKNTAYLQMNSLRAEDTAVYYCARSRWYRVLWSYVLDYWGQGTLVTVSSASTKGPSVFPLAPSSKSTSGGTAALGCLVKDYFPEPVTVSWNSGALTSGVHTFPAVLQSSGLYSLSSVVTVPSSSLGTQTYICNVNHKPSNTKVDKKVEPKSCDKTHTCPPCPAPELLGGPSVFLFPPKPKDTLMISRTPEVTCVVVDVSHEDPEVKFNWYVDGVEVHNAKTKPREEQYNSTYRVVSVLTVLHQDWLNGKEYKCKVSNKALPAPIEKTISKAKGQPREPQVYTLPPSREEMTKNQVSLSCAVKGFYPSDIAVEWESNGQPENNYKTTPPVLDSDGSFLVSKLTVDKSRWQQGNVFSCSVMHEALHNHYTQKSLSLSPGK
light: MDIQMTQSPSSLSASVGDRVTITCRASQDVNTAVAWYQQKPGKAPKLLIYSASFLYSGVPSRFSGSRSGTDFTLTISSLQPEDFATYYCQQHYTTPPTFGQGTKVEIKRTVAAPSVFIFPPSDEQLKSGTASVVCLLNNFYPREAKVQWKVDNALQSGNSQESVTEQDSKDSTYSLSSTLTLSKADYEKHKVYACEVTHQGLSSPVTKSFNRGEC
modifications: pAMF at F404 (EU), linked to LP8
B14: Conjugate 24 (D04 x C01-F404-LP8 biparatopic) (bispecific antibody, human IgG1, kappa)
heavy 1: B9 heavy with T366W
heavy 2: B9 heavy with S31N, D32G, G51Y, A55N, S58A, D60N, Y104F, T366S, L368A, Y406V
light: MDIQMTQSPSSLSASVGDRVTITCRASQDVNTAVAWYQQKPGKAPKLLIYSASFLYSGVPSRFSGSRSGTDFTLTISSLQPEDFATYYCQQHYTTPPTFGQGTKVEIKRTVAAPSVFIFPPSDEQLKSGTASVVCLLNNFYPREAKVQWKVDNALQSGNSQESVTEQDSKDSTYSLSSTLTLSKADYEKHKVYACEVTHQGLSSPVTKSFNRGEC
modifications: pAMF at F404 (EU), linked to LP8
B15: Conjugate 23 (D04 x D04-F404-LP8) (antibody, human IgG1, kappa)
heavy 1: B9 heavy with T366W
heavy 2: B9 heavy with T366S, L368A, Y406V
light: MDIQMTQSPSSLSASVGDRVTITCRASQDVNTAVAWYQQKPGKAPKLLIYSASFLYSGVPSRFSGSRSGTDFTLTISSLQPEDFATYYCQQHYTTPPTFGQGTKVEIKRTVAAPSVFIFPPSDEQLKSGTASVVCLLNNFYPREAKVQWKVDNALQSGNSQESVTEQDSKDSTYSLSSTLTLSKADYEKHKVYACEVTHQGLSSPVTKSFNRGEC
modifications: pAMF at F404 (EU), linked to LP8
B16: Conjugate 20 (D04-F404-LP31) (antibody, human IgG1, kappa)
heavy: B9 heavy
light: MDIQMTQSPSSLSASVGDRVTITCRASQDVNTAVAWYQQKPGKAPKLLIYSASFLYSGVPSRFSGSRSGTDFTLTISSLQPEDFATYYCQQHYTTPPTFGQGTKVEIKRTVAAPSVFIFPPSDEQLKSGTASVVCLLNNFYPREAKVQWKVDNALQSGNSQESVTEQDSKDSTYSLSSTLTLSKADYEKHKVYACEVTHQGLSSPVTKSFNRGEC
modifications: pAMF at F404 (EU), linked to LP31

How the values were obtained:
human ROR1 (hROR1) [1] = biological target: T1, human ROR1 (hROR1) (human, UniProt Q01973 30-937); assay: flow cytometry, HCT116-hROR1 cells
T1 construct: On HCT116-hROR1 transfectants, Mino cells or Ntera-2 cells, as the assay of each row says; also called receptor tyrosine kinase like orphan receptor 1

human ROR1 (hROR1) [2] = biological target: T1, human ROR1 (hROR1); assay: cell-based or functional assay
[3] = biological target: T2, human ROR1 Frizzled domain (hROR1-Fz) (human, UniProt Q01973 165-305); assay: SPR Biacore, IgG on anti-Fc, ROR1-Fz analyte
T2 construct: Acro Biosystems, made in HEK293
Procedure, shortened: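 Test antibodies captured on an anti-Fc surface (CM5 chip), then analyte bound for 180 s with 600 s dissociation at 25° C in HBS-EP+ buffer at 50 μL/min. Human ROR1 ECD, Frizzled or Kringle domain used as analyte; regeneration with 10 mM glycine pH 2.0.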

[4] = biological target: receptor tyrosine kinase orphan receptor 1 (ROR1) on Ntera-2 cells (human, UniProt Q01973 30-937); assay: cell-based or functional assay

| Binder | Bmax (MFI) (human ROR1 (hROR1) [1]) | Kd (human ROR1 (hROR1) [1]) [nM] | Mino Nb-PBD, drug-conjugated 2° antibody Cell Killing EC50 (human ROR1 (hROR1) [2]) [nM] | Mino Nb-PBD, drug-conjugated 2° antibody Cell Killing Span (human ROR1 (hROR1) [2]) [%] | Kd [3] [nM] | koff [3] [s⁻¹] | kon [3] [M⁻¹ s⁻¹] | cell killing EC50, NTERA-2 cells [4] [nM] | cell killing Span, NTERA-2 cells [4] [%] |
| --- | --- | --- | --- | --- | --- | --- | --- | --- | --- |
| B1 | 15500 | 1.22 | 0.0038 | 61 | 6.94 | 0.00101 | 146000 | – | – |
| B2 | 15800 | 1.64 | 0.0042 | 59 | 2.89 | 0.000331 | 114000 | – | – |
| B3 | 15200 | 0.46 | 0.0013 | 66 | 1.59 | 0.000251 | 158000 | – | – |
| B4 | 15300 | 0.15 | 0.0023 | 66 | 1.13 | 0.000178 | 158000 | – | – |
| B5 | 14600 | 1.7 | 0.0027 | 65 | 5.31 | 0.000487 | 91700 | – | – |
| B6 | 15200 | 0.23 | 0.0029 | 67 | 1.9 | 0.000226 | 119000 | – | – |
| B7 | – | – | – | – | – | – | – | 0.028 | 88 |
| B8 | – | – | – | – | – | – | – | 0.027 | 88 |
| B9 | – | – | – | – | – | – | – | 0.043 | 83 |
| B10 | – | – | – | – | – | – | – | 0.03 | 77 |
| B11 | – | – | – | – | – | – | – | 0.024 | 89 |
| B12 | – | – | – | – | – | – | – | 0.028 | 84 |
| B13 | – | – | – | – | – | – | – | 0.018 | 87 |
| B14 | – | – | – | – | – | – | – | 0.017 | 85 |
| B15 | – | – | – | – | – | – | – | 0.022 | 83 |
| B16 | – | – | – | – | – | – | – | > 10 | > 60 |
